According to the supplement of paper PMC9170038:

Tested on: K4 kissing-loop RNA reporter
Experiment: apparent KD of K4 kissing-loop reporter; higher = weaker reporter binding
Details: Eterna round: R107; input ligand: FMN 200 uM
Experimental: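 RNA-MaP round R107: designed RNA switches with theophylline, tryptophan, arginine or FMN aptamers are transcribed on-chip within common flanks. They are titrated with a labelled K4 kissing-loop RNA reporter in RNA-MaP buffer (100 mM Tris pH 7.5, 80 mM KCl, 4 mM MgCl2), without ligand or with the indicated ligand. Median apparent KD per design.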
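Also: bound reporter read as fluorescence of individual clusters on recovered sequencing chips by microscopy, with normalized cluster intensities fitted with a binding model.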

Going from “UAAGAAUAAGUAGCAGUGAUGUUGCUACUGCGAGGACCGGUACGGCCGCCACUCGAGUCCUCGAAACAUCACUGAACGAGGAAUA [whbob_SS_Tryp_A_m11]” to “UUAGUCUAGAGAAGGAGCGCAGUGAUGUUGCGGUAUGUGAAAAUAUGUAUAUAAUAAUAAAUGCAGGUAGGUCGCUCUAGACAUU [AK2 Exc Arginine B]”, the “apparent KD of K4 kissing-loop reporter” value falls from 298 nM to 68.4 nM (4.4-fold).

Compared with “AUUUUUUUGUCAGGAUAUUAGUAUGCUUUUGGUUUGUUAGUGAUGUUGAUAUUUUGUUUAUGUAUUUAAGAAGGGAUUUAGCGGU [etvuumullin]”, “AAGUGUUCUAGUGAUACCAGACAUUUCUAUUACAUUAAUAUAGCUAAGUGAUGUUUAGCAGUCCCUUGGCAGCACUAUUUCACUA [JR_SSTheophyB_Sub015]” is 2.4-fold lower in “apparent KD of K4 kissing-loop reporter” value: 409 nM for the first, 167 nM for the second.

Compared with “AAGCCAGAGAUUGCUGCGGGUUCCAGAGAUACCAGCCGUAUUGAAGGCCCUUGGCAGCUCGAGUGAUGUUCGAGCCGUCUCUAGC [Bisore]”, “UCUCAGGAGUGAUGUUCCGUAGGUGGAAGGAAGGAUAUCUAAUGGCAGAGAAGGUCCAUCCUUGCUCGUAUCAGUGCCGGGAAGC [theeternabot_exclusion_KL_FMN_A_13]” is 2.2-fold higher in “apparent KD of K4 kissing-loop reporter” value: 126 nM for the first, 282 nM for the second.

First: CAGGCGACUAUCGAUACCAGAUGAUAUCGACUACUUGAGUGAUGUUCGAUUAAAGGCAUUAUCCCUUGGCAGCGACUGGACACAU [theeternabot_sameState_KL_Theo_B_24]
Second: UAAGAUAUGAGGGAUACCAGCCAUAAGGAAAGUGUGAUGAGUGAUGUUCUGACAAGCCAAGGCCCUUGGCAGCUUUAAUAGCAUC [whbob_SS_Theo_B_th76]
The “apparent KD of K4 kissing-loop reporter” value of the first is 2.6-fold higher: 706 nM for the first, 271 nM for the second.

Compared with “UCCUGCAAUCUGCCACGAAAGUGGGUUGAUACCAGAGUCGAAAGACUCCCUUGGCAGCGAGUGAUGUUCGUUGCAGGUGUUUAAA [MatMod 11 - Jieux - Exclusion - Theophylline A]”, “AUUUGUUUAUGUGAUACCAGACUUUGCAGUGAUGUUGCAUUUAUUUUAGAAGAAUAGUUUGUCCCUUGGCAGCACUAUGUAUUUA [JR_SSTheophyB_Sub006]” is 4.4-fold lower in “apparent KD of K4 kissing-loop reporter” value: 197 nM for the first, 44.9 nM for the second.

“UGCACCAGUGAUGUUGGUCGGCACCGAGAUACCAGCUGAUCUCUUAGCCCUUGGCAGCUCUUUAUUCGCGUUAUCAGUUUCUUCG [theeternabot_sameState_KL_Theo_A_16]” and “AUGCGACGUGCGGCCGCCACUCGGAUGCGAGUGAUGUUCGCGGGACGGACGCAAGUCCGUCAUUCGAGGACCGGGCAUCGGUGUA [#2 Same State - Tryptophan B Attempt #2 (HarryS)]” are within 1.5-fold of each other in “apparent KD of K4 kissing-loop reporter” value: 428 nM for the first, 555 nM for the second.

Going from “GUUACGCAUGGAAGGAGCGCAGGCUCAACAAAUAGCUCAGUGAUGUUGAGCAAAUUAAAACUGCAGGUAGGUCGCCAUGUGUAAC [Ex Arginine B K4 22]” to “AAUGCAUAGUGAAGGAGCGCGAUAAGCAGUGAUGUUGCUUAGCUAUUAUUCAUUUUUUUAACGCAGGUAGGUCGCACUUUGCAUA [JR_ExcArginiB_Sub016]”, the “apparent KD of K4 kissing-loop reporter” value falls from 399 nM to 166 nM (2.4-fold).

“CAAACGUGCGGUAGGUUCAAGCGCUGGGAAGGAGCGCAGAUGACUGCAGGUAGGUCGCCCAGUGAUGUUGGGCUUUCCACCUACG [Dilausma]” and “GGUUCCUCAGUGAUGUUGAGGUGACCUCGGCAGGAUAUAGGCAUUACUAGAAGGGCCAAAAGAAUCCUGUGCAGCAACACAGGGA [Usrasoza]” are within 1.5-fold of each other in “apparent KD of K4 kissing-loop reporter” value: 138 nM for the first, 152 nM for the second.

With “AGGAGCGUGCGAUGGAAAUCGCACGCUCCUCGAGGACCGGUACGGCCGCCACUCGCUCGCGCCGAGUGAUGUUCGGCCGGCGAAG [#2 Same State - Tryptophan A Attempt #16 (HarryS)]” the “apparent KD of K4 kissing-loop reporter” value was 85.6 nM.

Same assay, conditions: Eterna round: R107; input ligand: arginine 13.2 mM

First: AAAUUUAAUAUAUUUAAAUAAAUAUGUGAUACCAGACAUUUAUAAGUCCCUUGGCAGCACAAUGCAGUGAUGUUGCUUAUAAUAA [JR_SSTheophyA_Sub017]
Second: GAUAAAUUGAUGCGUAGUGAUGCACGGGAAGGAGCGCGUUUUUUCGCAGGUAGGUCGCCCGACUGCGCGUUUCGAGUGAUGUUCG [5.)]
The “apparent KD of K4 kissing-loop reporter” value of the first is 1.7-fold lower: 114 nM for the first, 198 nM for the second.

Going from “GCCGUAGAUUGAAGGAGCGUGGACCUAUCGCUUGAACAGUGAUGUUGUUUAUCUAGGGAGCCGCAGGUAGGUCGCAAUCUACGGC” to “UACGCUUACUUGCGCGGUCCGAUUAACGAUACCAGCGAAGAAGCCCGCCCUUGGCAGCGUUAUAGAGUGAUGUUCACGGAGAUUA [theeternabot_sameState_KL_Theo_A_12]”, the “apparent KD of K4 kissing-loop reporter” value rises from 355 nM to 872 nM (2.5-fold).

Going from “GAUAUAGUGAUGUUAUAUACUGAUAGACAACGAGGACCGGUACGGCCGCCACUCGAGAGGGUGAAAAUGGUGAUAAAAUAAUGAU [#03 K4 Tryptophan A Exclusion]” to “UGAUUUAACUGAAGGAGCGGCAAUUGAGAAGGAAAUAUAGUGAUGUUAUAUAAGAGAGAGAGCCAGGUAGGUCGCAGAGGGAGGA [ExArgB.G]”, the “apparent KD of K4 kissing-loop reporter” value falls from 271 nM to 131 nM (2.1-fold).

Compared with “UAGUCCUAGUGAUCCUUAUCAAGUGGUGGGCGAGGACCGGUACGGCCGCCACUCGACUAUGCAGUGAUGUUGUAAUCCGGACAAU [Exclusion - Tryptophan A (Freestyle 12)]”, “AUGUCUUAUAAACUCGUGGUUUCGAUCGAUACCAGUAGCGAGAGUUACCCUUGGCAGCGACAUGAGUGAUGUUCAUGUACGAAGA [KL-XTheoA4]” is 5.5-fold lower in “apparent KD of K4 kissing-loop reporter” value: 488 nM for the first, 89 nM for the second.

“UUUCUAUCGGGAAGGAGCGUGAAUGAUAAUGGAUAUAGUGAUGUUAUAUAUAAGAACGAAUCGCAGGUAGGUCGCCCGGAUGACU [SSArgB.R]” and “AAGCAGUCACUCGAAGCCAUCGAAGAUGGUCGAGGACCGGUACGGCCGCCACUCGGAGUGAUGUUCCGAAGACUGCAAAAUAAAA [#SwitchBubble 11]” are within 1.5-fold of each other in “apparent KD of K4 kissing-loop reporter” value: 357 nM for the first, 246 nM for the second.
